Test results taken from patent US11103555B2, “Compositions and methods for reducing tumor cell growth at a site of solid tumor excision” (The Pacific Heart, Lung, & Blood Institute, priority 2016, dated 2021).

Tested on: melanoma
Assay: Treatment of patients with melanoma
Type: in vivo
Procedure: 100 patients are diagnosed with melanoma and subject to IL-12 recombinant protein injection at the tumor site. Patients receive either vehicle injections, 250 ng/kg/day of IL-12 or 500 ng/kg/day of IL-12 per treatment every three days for a week. […] By 5 years post-surgery, 40% of the patients who undergo IL-12 therapy have a relapse of […], and have 60% survival rate.
100 patients are diagnosed with melanoma and are administered genetically modified stem cells expressing IL-12 by intracavitary infusion. Tumor size is monitored by PET scan, and at the end of six months, the tumor size is reduced.

B1: IL-12: IL-12 recombinant protein injected at the tumor site (protein, listed as Homo sapiens)
chain 1: MCHQQLVISWFSLVFLASPLVAIWELKKDVYVVELDWYPDAPGEMVVLTCDTPEEDGITWTLDQSSEVLGSGKTLTIQVKEFGDAGQYTCHKGGEVLSHSLLLLHKKEDGIWSTDILKDQKEPKNKTFLRCEAKNYSGRFTCWWLTTISTDLTFSVKSSRGSSDPQGVTCGAATLSAERVRGDNKEYEYSVECQEDSACPAAEESLPIEVMVDAVHKLKYENYTSSFFIRDIIKPDPPKNLQLKPLKNSRQVEVSWEYPDTWSTPHSYFSLTFCVQVQGKSKREKKDRVFTDKTSATVICRKNASISVRAQDRYYSSSWSEWASVPCS
chain 2: MWPPGSASQPPPSPAAATGLHPAARPVSLQCRLSMCPARSLLLVATLVLLDHLSLARNLPVATPDPGMFPCLHHSQNLLRAVSNMLQKARQTLEFYPCTSEEIDHEDITKDKTSTVEACLPLELTKNESCLNSRETSFITNGSCLASRKTSFMMALCLSSIYEDLKMYQVEFKTMNAKLLMDPKRQIFLDQNMLAVIDELMQALNFNSETVPQKSSLEEPDFYKTKIKLCILLHAFRIRAVTIDRVMSYLNAS
- tumor size by PET scan, higher dose (500 ng/kg/day versus 250 ng/kg/day or vehicle): greater reduction in tumor size than the lower dose or vehicle injected patients
- tumor size by PET scan (IL-12 recombinant protein injection at the tumor site, 250 or 500 ng/kg/day every three days for a week, versus vehicle): reduced tumor size
- patients with relapse (by 5 years): 40%
- survival rate (by 5 years): 60%
- T cell activation and immune cell infiltration in biopsies of injected lesions (versus vehicle injections): more T cell activation and immune cell infiltration
